Series [1] in a line: Critical micelle concentration (methyl orange assay). It is filed as physicochemical. The note with it: pH 7 PBS, A484. As for the experimental part:
Formation of a composition of the invention, and evidence of macromolecular network formation, may be monitored or quantified by any means known in the art. In this example, macromolecular formation was detected using a standard assay for determining critical micelle concentration (“CMC”). In this assay, a solution containing the composition of the invention (in a range of concentrations in pH 7 phosphate buffered saline (“PBS”)) was mixed with a solution of methyl orange (0.04 mM in PBS), and the absorbance of the mixture was measured at 484 nm (A484). CMC is the concentration at which a sharp decrease in absorbance at A484 is observed, a change in the optical properties of methyl orange when trapped in a hydrophobic phase, such as caused by self-association as a macromolecular network (Table 7, “CMC”). Also included in this assay were an assay control peptide having an amino acid sequence of SEQ ID NO:122 (Table 7, “Control”), and compound 119 (a PEGylated peptide, the peptide having an amino acid sequence of SEQ ID NO:122, as described in more detail in Example 6 herein).

Series [2] is described as follows: Vancomycin loading onto titanium bead (HPLC of HCl eluate). The conditions noted are these: mixture with vancomycin, 30 mins 20° C., washed with PBS. As for the experimental part: The experimental procedure used for the embodiments described above was as follows. […] All three components were mixed and then applied to the metal bead. […] All three components were mixed and then applied to the metal bead. […] The mixtures were applied to the metal beads and incubated for 30 mins at 20° C. with 700 rpm shaking. The beads were washed three times with 350 ul PBS. Beads were analyzed as follows: 200 ul of 100 mM HCl was added to each bead and incubated for 30 mins at 20° C. with 1,000 rpm shaking. The eluate from each bead was analyzed by HPLC using Phenomenex Luna 3 um column, 50×4.60 mm. Output was compared to a standard curve for vancomycin to determine the amount of vancomycin retained onto the metal bead.

Series [3] is classed as binding. The note with it: 18 hour incubation in 10% BSA+10 mM guanidinium chloride; FIG. 1. An excerpt:
In this example, illustrated are unexpected beneficial properties of the composition of the invention, including but not limited to, one or more improved biophysical properties. Such one or more unexpected beneficial properties of a composition of the invention may comprise an increase in stability. An increase in stability may comprise any one or more of resistance to chemical denaturation, resistance to proteolytic degradation, improved retention to a substrate (e.g., resistance to being competed off a substrate to which it is bound, such as by proteins or other biomolecules found in body tissues). Thus, to ascertain a beneficial property of a composition of the invention, it is compared to the properties of a component of the composition-namely, a substrate-binding peptide by itself (e.g., without fatty acid covalently coupled thereto). An assay was developed that, from our direct comparisons (see, e.g., discussion of FIG. 2 below, and Example 7 herein), mimicked the effect of incubation of substrate-binding peptide with human plasma on stability of binding of a substrate-binding peptide to its substrate. The assay utilized incubations in the presence of 10% bovine serum album (BSA) with 10 mM guanidinium chloride. The high BSA concentration mimics the elevated albumin content of human plasma, and the guanidinium chloride is used to compete with any charged interactions involved in binding of the substrate-binding peptide to its substrate.
In this assay, two immunoassay plates were prepared for a “side-by-side” comparison of binding of a test sample (substrate-binding peptide or composition of the invention) to its substrate with or without the presence of 10% BSA with 10 mM guanidinium chloride. The wells of each 96-well polypropylene plate were incubated with 350 μl BSA 1% in PBS for 30 minutes at 20° C. with 500 rpm shaking. To each well was added one acetone-cleaned 3/32″ 316LVM stainless steel bead, followed by addition of dilutions in PBS of the test sample in a range of concentrations starting from 10 μM. Final volume in each well was 200 μl. The plates were incubated for 1 hour at 20° C. with 500 rpm shaking to allow for the binding to occur. The beads were washed 3 times with 250 μl PBS using a plate washer. […]
In the immunoassay for detecting binding without the presence of 10% BSA with 10 mM guanidinium chloride, added to each well was 200 μl of streptavidin AP (AP is alkaline phosphatase) at 1/200 in TBS+1% BSA. […] When color has developed, each well was read at OD405 nm in endpoint mode using a plate reader. […] When color has developed, the wells were read at OD405 nm in endpoint mode using a plate reader. […]

A further series has as its target T1, GDF-7 (R&D SYSTEMS).
T1 sequence (Q7Z4P5 322-450, species assumed, looked up): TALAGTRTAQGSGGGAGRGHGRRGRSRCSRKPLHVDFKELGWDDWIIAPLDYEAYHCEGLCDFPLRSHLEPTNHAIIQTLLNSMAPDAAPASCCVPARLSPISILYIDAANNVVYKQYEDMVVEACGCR
The series is described as follows: GDF-7 capture on peptide-coated sutures; anti-GDF-7 antibody/AP, pNPP read-out; relative EC50; lower limit told of the whole group.

Numbered stars: 1 amine (or outer) side, 2 acyl side, 3 side chain; on linkers, the order of the positions; unused ones are H or OH. Square brackets hold non-standard residues; d marks the D form. Ends that are not written are not given here. * marks the point of attachment. (AUD)6 = six aminoundecanoic acid units between the two peptides, O=C(CCCCCCCCCCNC(=O)CCCCCCCCCCNC(=O)CCCCCCCCCCN[*:1])NCCCCCCCCCCC(=O)NCCCCCCCCCCC(=O)NCCCCCCCCCCC(=O)[*:2]; Biotin = O=C1N[C@H]2[C@H](CS[C@H]2CCCCC(=O)*)N1; P10 = 10 unit polyethylene glycol polymer; Myristoyl = CCCCCCCCCCCCCC(=O)*; Lauroyl = CCCCCCCCCCCC(=O)*; linker = not defined here; (MP)2 = not defined here; AEEA = NCCOCCOCC(=O)O

A word on the EC50: it is the concentration at which the effect is half-maximal.

“[MYR]2-K-linker-SEQ ID NO: 122 (SSHRTNHKKNNPKKKNKTRGSSGK; also: lysine bearing two myristoyl groups, place not given here, linker, place and nature not given here) [Compound 128]” came in with a CMC in series [1] of 0.123 µM.
Regarding “MA-AHx-SSCLIDIYGVCHNFDAY-miniPeg-miniPeg-YFRAFRKFVKPFKRAFKGSSK(Biotin) [SEQ ID NO: 165]”, in series [2], the “Vancomycin Load” value was 1,700 pmol/cm2.
Consider “MYR-linker-SEQ ID NO: 122 ({Myristoyl-linker}-SSHRTNHKKNNPKKKNKTRGSSGK; reading uncertain) [Compound 127]”, for which the CMC in series [1] was 0.123 µM.
With “MA-Ahx-SSCLIDIYGVCHNFDAY-miniPeg-miniPeg-HKKNNPKKKNKTRGSSK(Biotin) [SEQ ID NO: 164]”, the “Vancomycin Load” value in series [2] stood at 278 pmol/cm2.
Turning to “120: amino acid sequence YWAWAYAW (SEQ ID NO:129) covalently coupled to a peptide having the amino acid sequence of SEQ ID NO:122 (YWAWAYAWSSHRTNHKKNNPKKKNKTRGSSGK) [Compound 120]”, the “retention of binding compared to substrate-binding peptide alone (SEQ ID NO:122)” value in series [3] is given as “failed to promote retention”.
Turning to “Pyrene-butyric-SSCLIDIYGVCHNFDAY-miniPeg-miniPeg-HKKNNPKKKNKTRGSS-K(Biotin) [SEQ ID NO: 166]”, the “Vancomycin Load” value in series [2] turned out to be 173 pmol/cm2.
For the molecule “119: Fmoc-NH-(PEG)27-CO2H covalently coupled to a peptide having the amino acid sequence of SEQ ID NO:122 (PEGylated peptide) (SSHRTNHKKNNPKKKNKTRGSSGK; also: Fmoc-NH-(PEG)27-CO2H covalently coupled, site not given here) [Compound 119]”, the “retention of binding compared to substrate-binding peptide alone (SEQ ID NO:122)” value in series [3] was “failed to promote retention”. In addition, in series [1], the CMC is reported as >>10 μM.
As for “SSHRTNHKKNNPKKKNKTRGSSGK [SEQ ID NO:122, assay control peptide]”, the CMC in series [1] is >>10 μM.
With “LAU-SEQ ID NO: 122 (Lauroyl-SSHRTNHKKNNPKKKNKTRGSSGK) [Compound 126]”, the CMC in series [1] was 0.37 µM.
As for “SSSCLIDMYGVCHNFDGAYDSSRG-miniPeg-miniPeg-SSHRTNHKKNNPKKKNKTRGSSGK (SSSCLIDMYGVCHNFDGAYDSSRG[AEEA][AEEA]SSHRTNHKKNNPKKKNKTRGSSGK; not fully specified (bridges); printed as SSSCLIDMYGVCHNFDGAYDSSRG-miniPeg-miniPeg-SSHRTNHKKNNPKKKNKTRGSSGK; cysteine pairing not given here) [SEQ ID NO: 163]”, the “Vancomycin Load” value in series [2] is recorded as 54 pmol/cm2.
With “PALM-PALM-PALM-linker-SEQ ID NO: 122 (SSHRTNHKKNNPKKKNKTRGSSGK; also: three palmitoyl groups, place not given here, linker, place and nature not given here) [Compound 129]”, the CMC in series [1] was 0.123 µM.
Consider “RRRRRRR-PSSHRTNHKKNNPKKKNKTRGP-RRRRRRR-K(biotin) [SEQ ID NO: 156]”, for which the “Vancomycin Load” value in series [2] is on record as under 10 pmol/cm2.
For “MYR-SEQ ID NO: 122 (Myristoyl-SSHRTNHKKNNPKKKNKTRGSSGK) [Compound 125]”, the CMC in series [1] amounted to 0.123 µM.
For the molecule [code s][code s]GGVGGWALFETLRGKEV[code s][code r][(MP)2]YFRAFRKFVKPFKRAFKGSSGK(Biotin)-NH2 (not fully specified; reading uncertain) [SEQ ID NO 148], the EC50 with GDF-7 (R&D SYSTEMS) is over 20 nM.
Consider [code s][code s]GGVGGWALFETLRGKEV[code s][code r][(AUD)6]SWWGFWNGSAAPVWSRGSSGK(Biotin)-NH2 (not fully specified) [SEQ ID NO 154], for which the concentration giving a half-maximal response (EC50) in the series with GDF-7 (R&D SYSTEMS) is over 20 nM.

B1: SEQ ID NO 149 (peptide)
peptide: [code s][code s]GGVGGWALFETLRGKEV[code s][code r][P10]YFRAFRKFVKPFKRAFKGSSGK(Biotin)-NH2
modifications: not fully specified; printed as ssGGVGGWALFETLRGKEVsr-P10-YFRAFRKFVKPFKRAFK-GSSGK-B-NH2
Turning to B1, in the series with GDF-7 (R&D SYSTEMS), the EC50 is over 20 nM.

B2: SEQ ID NO 150 (peptide)
peptide: SWWGFWNGSAAPVWSRGSSG[code s][code s]GGVGGWALFETLRGKEV[code s][code r]GSSGK(Biotin)-NH2
modifications: not fully specified; printed as SWWGFWNGSAAPVWSR-GSSG-ssGGVGGWALFETLRGKEVsr-GSSGK-B-NH2
As for B2, the EC50 in the series with GDF-7 (R&D SYSTEMS) is over 20 nM.

B3: SEQ ID NO 147 (peptide)
peptide: YFRAFRKFVKPFKRAFK[(MP)2][code s][code s]GGVGGWALFETLRGKEV[code s][code r]GSSGK(Biotin)-NH2
modifications: not fully specified; printed as YFRAFRKFVKPFKRAFK-(MP)2-ssGGVGGWALFETLRGKEVsr-GSSGK-B-NH2; reading uncertain
B3: in the series with GDF-7 (R&D SYSTEMS), the EC50 was over 20 nM.
Regarding [code s][code s]GGVGGWALFETLRGKEV[code s][code r][(MP)2]SWWGFWNGSAAPVWSRGSSGK(Biotin)-NH2 (not fully specified; reading uncertain) [SEQ ID NO 152], in the series with GDF-7 (R&D SYSTEMS), the EC50 is over 20 nM.
As for [code s][code s]GGVGGWALFETLRGKEV[code s][code r]GSSGYFRAFRKFVKPFKRAFKGSSGK(Biotin)-NH2 (not fully specified) [SEQ ID NO 155], in the series with GDF-7 (R&D SYSTEMS), the 50% effective concentration (EC50) was over 20 nM.

B4: SEQ ID NO 153 (peptide)
peptide: [code s][code s]GGVGGWALFETLRGKEV[code s][code r][P10]SWWGFWNGSAAPVWSRGSSGK(Biotin)-NH2
modifications: not fully specified; printed as ssGGVGGWALFETLRGKEVsr-P10-SWWGFWNGSAAPVWSR-GSSGK-B-NH2
For the molecule B4, the concentration for a half-maximal effect (EC50) with GDF-7 (R&D SYSTEMS) is over 20 nM.

The record behind these values is US20090246248A1, “COATING COMPOSITIONS HAVING IMPROVED PERFORMANCE” (priority 2008, published 2009).
